# According to patent US20090221680, “Aptamers that bind thrombin with high affinity” (published 2009):
# B1: AMX(395)_A4 (ssDNA)
# DNA: TCCCGGGAGATCGCTTCGAAAATGGTTGGCGTGGGTGGCTGAGGATCGATC
# Molecular target: T1, thrombin (alpha-thrombin) (Homo sapiens, UniProt P00734;P00734 P00734:315-363,P00734:364-622)
# Assay: filter; 10 nM thrombin
# Conditions: not given
row,Binder,binding signal [% bound]
1,TCCCGAGCGATCGGGGTGGTTTTTTGGGAGTGGGTGGCTGAGGATCGATC (ssDNA) [AMX(399)_C7],6.8
2,TCCCGCGATCTCTGGGGTAACGTTTTGGTGTGGGTGGCTGAGGATCGATC (ssDNA) [AMX(399)_D3],21.7
3,TCCCGTCGATTCGGTATGGTTTCGTTTCTGGGTGGCTGAGGATCGATC (ssDNA) [AMX(399)_B11],18.7
4,TCTCGATCGGACGTGGTGGGTTACTGGCTTGGGTGGCTGAGGATCGATC (ssDNA) [AMX(399)_D8],22.2
5,TTCCTGTCGATAAGGGGTATTATAGTGGTGTGGGTGGCTGAGGATCGATC (ssDNA) [AMX(399)_C9],11.2
6,TCTCATTCGTTCCGGGGTATTTAGTGGGTCGGGTGGCTGAGGATCGATC (ssDNA) [AMX(399)_C10],35.4
7,TCCCTTGATCCGGTGGTAGTTTTATTGGTGCGGGTGGCTGAGGATCGATC (ssDNA) [AMX(398)_F6],23.9
8,TCCCAGAGAGCCGGGGTATAATTGTGGTGTGGGTGGCTGAGGATCGATC (ssDNA) [AMX(399)_D11],41.3
9,TCCCACGATCCGGGGTGTCTTTCGTGGGCTGGGTGGCTGAGGATCGATC (ssDNA) [AMX(399)_E1],37.6
10,TCCCATCGATCTGTGGTCTTTTTTGGTGTGGGTGGCTGAGGATCGATC (ssDNA) [AMX(399)_D12],32.6
11,TCCCGATCGAGAGTGGTATTTGTTTTCTGGGTGGCTGAGGATCGATC (ssDNA) [AMX(398)_F5],21.3
12,TCCCATCGAACCGCGGGTAATCTTATGGGTCGGGTGGCTGAGGATCGATC (ssDNA) [AMX(399)_E4],7.5
13,TCCCGATCTATCCGGGGTACATTTGTGGTTTGGGTGGCTGAGGATCGATC (ssDNA) [AMX(399)_C12],18.7
14,TCCCGTCGATCAGGGGTAATTTGCTGGTGGTGGGTGGCTGAGGATCGATC (ssDNA) [AMX(399)_C8],36.8
15,TCCCATCGATACGGGGTGGAATCTTGGGGTGGGTGGCTGAGGATCGATC (ssDNA) [AMX(399)_E9],14.8
16,TCCCGATTGTCATAGGTGGTTTGTCTGGGTAGGGTGGCTGAGGATCGATC (ssDNA) [AMX(399)_E10],29.8
17,TCCTGTCGATCCCTACGGGTAGTGTTGGTTTGGGTGGCTGAGGATCGATC (ssDNA) [AMX(399)_B9],14.7
18,TCCCGCATTGAATAGGACTCAGGGATGGTGTGGGTGGCTGAGGATCGATC (ssDNA) [AMX(399)_D6],22.7
19,TCCCATCGAGTCGTGGTGTTTTGTTGGCCTGGGTGGCTGAGGATCGATC (ssDNA) [AMX(398)_F2],8.76
20,TCCCAGGATCGATTCTGGTATTGTTGGTGGGGGTGGCTGAGGATCGATC (ssDNA) [AMX(399)_D9],20.3
21,TCCCGATTTCGATTCTGGTAGTGTTTTCTGGGTGGCTGAGGATCGATC (ssDNA) [AMX(399)_E3],13
22,TCCCATCGATTTGTCCTCAGAGGTTGGCGTGGGTGGCTGAGGATCGATC (ssDNA) [AMX(399)_B12],24.2
23,TCCCATCGAGCCGGGTATGTTTCGTTGGGCTGGGTGGCTGAGGATCGATC (ssDNA) [AMX(399)_E5],15
24,TCCCGATTGATTCTGGGAGGTTTGGTTCTGGGTGGCTGAGGATCGATC (ssDNA) [AMX(399)_D4],10.4
25,TCCCTCGATCTAAGGTGCTTTTAGTGGTTTGGGTGGCTGAGGATCGATC (ssDNA) [AMX(399)_D7],7.59
26,TCCCATTGATCCGGGGTGGTTTTCTGGTTTGGGTGGCTGAGGATCGATC (ssDNA) [AMX(399)_B10],24.4
27,TCCCATCGATCTGTGGTGGTTTTGTGGTTTGGGTGGCTGAGGATCGATC (ssDNA) [AMX(399)_D10],38.8

# Molecular target: prothrombin (Homo sapiens, UniProt P00734 P00734:44-622)
# Assay: filter; 50 nM prothrombin
# Conditions: tags: Athens Research
# Protocol: Dot blot binding assays were performed throughout the selections to monitor the protein binding affinity of the pools. Trace ³²P-labeled RNA was combined with a dilution series of human Thrombin (1 nM-1000 nM) and incubated at room temperature for 30 minutes in 1×DPBS (w/ Ca²⁺ and Mg²⁺) (Gibco, Catalog #14040, Invitrogen, Carlsbad, Calif.) plus 0.1 mg/ml BSA in a final volume of 30 μl. The binding reactions were analyzed by nitrocellulose filtration using a Minifold I dot-blot, 96-well vacuum filtration manifold (Schleicher & Schuell, Keene, N.H.). A three-layer filtration medium was used, consisting (from top to bottom) of Protran nitrocellulose (Schleicher & Schuell, Keene, N.H.), Hybond-P nylon (Amersham Biosciences, Piscataway, N.J.) and GB002 gel blot paper (Schleicher & Schuell, Keene, N.H.). RNA that is bound to protein is captured on the nitrocellulose filter, whereas the non-protein bound RNA is captured on the nylon filter. The gel blot paper was included simply as a supporting medium for the other filters. Following filtration, the filter layers were separated, dried and exposed on a phosphor screen (Amersham Biosciences, Piscataway, N.J.) and quantified using a Storm 860 Phosphorimager® blot imaging system (Amersham Biosciences, Piscataway, N.J.).
# Based on pool binding monitored throughout the selections as described above, Round 9 Pools from both Selection #2 and #3 were also cloned using a TOPO TA Cloning kit (Invitrogen, Carlsbad, Calif.) according to manufacturer's instructions, and sequenced. Of the 136 sequences obtained from Round 9 of both selections, 130 unique sequences were selected for assaying in a single-point dot blot screen against thrombin and prothrombin to test for selective binding to thrombin. Clones were ordered from IDT (Coralville, Iowa) at 25 μmole synthesis scale. Clone transcripts were 5′ end labeled with γ̅³²P ATP and spin purified with Centrisep columns (Princeton Separations, Adelphia, N.J.) to remove excess label. Trace amounts of labeled clone were incubated with +/−10 nM Thrombin (or +/−50 nM prothrombin) and 0.1 mg/ml BSA in a total volume of 30 μl 1×DPBS (w/ Ca²⁺ and Mg²⁺) (Gibco, Catalog #14040, Invitrogen, Carlsbad, Calif.) for 30 minutes. Post incubation, the binding reaction applied the dot-blot binding assay apparatus previously described.
row,Binder,binding signal [% bound]
1,TCCCAATCGGTCCTGGTAATATATTGGTCGGGGTGGCTGAGGATCGATC (ssDNA) [AMX(399)_H3],45.5
2,TCCCGAGCGATCGGGGTGGTTTTTTGGGAGTGGGTGGCTGAGGATCGATC (ssDNA) [AMX(399)_C7],6.94
3,TCCCGCGATCTCTGGGGTAACGTTTTGGTGTGGGTGGCTGAGGATCGATC (ssDNA) [AMX(399)_D3],25.3
4,TCCCGTCGATTCGGTATGGTTTCGTTTCTGGGTGGCTGAGGATCGATC (ssDNA) [AMX(399)_B11],18.2
5,TCTCGATCGGACGTGGTGGGTTACTGGCTTGGGTGGCTGAGGATCGATC (ssDNA) [AMX(399)_D8],19.6
6,TTCCTGTCGATAAGGGGTATTATAGTGGTGTGGGTGGCTGAGGATCGATC (ssDNA) [AMX(399)_C9],10.9
7,TCTCATTCGTTCCGGGGTATTTAGTGGGTCGGGTGGCTGAGGATCGATC (ssDNA) [AMX(399)_C10],34.3
8,TCCCTTGATCCGGTGGTAGTTTTATTGGTGCGGGTGGCTGAGGATCGATC (ssDNA) [AMX(398)_F6],24.6
9,TCCCAGAGAGCCGGGGTATAATTGTGGTGTGGGTGGCTGAGGATCGATC (ssDNA) [AMX(399)_D11],39.5
10,TCCCACGATCCGGGGTGTCTTTCGTGGGCTGGGTGGCTGAGGATCGATC (ssDNA) [AMX(399)_E1],39.1
11,TCCCGAGTGATCCGGGGTGTTTTTTTGGGTTGGGTGGCTGAGGATCGATC (ssDNA) [AMX(398)_E3],47.5
12,TCCCATCGATCTGTGGTCTTTTTTGGTGTGGGTGGCTGAGGATCGATC (ssDNA) [AMX(399)_D12],32.2
13,TCCCGATCGAGAGTGGTATTTGTTTTCTGGGTGGCTGAGGATCGATC (ssDNA) [AMX(398)_F5],19.4
14,TCCCGTTCGAGTCCTGGTGTTTTATTGGCCTGGGTGGCTGAGGATCGATC (ssDNA) [AMX(399)_D5],23.8
15,TCCCATCGAACCGCGGGTAATCTTATGGGTCGGGTGGCTGAGGATCGATC (ssDNA) [AMX(399)_E4],7.29
16,TCCCGATCTATCCGGGGTACATTTGTGGTTTGGGTGGCTGAGGATCGATC (ssDNA) [AMX(399)_C12],17.2
17,TCCCGTCGATCAGGGGTAATTTGCTGGTGGTGGGTGGCTGAGGATCGATC (ssDNA) [AMX(399)_C8],33.8

row,Binder,binding signal [% bound]
1,TCCGATTGACGTGGTGGGTTACTGGTTTGGGTGGCTGAGGATCGATC (ssDNA) [AMX(398)_A1],18
2,TCCCATCGATACGGGGTGGAATCTTGGGGTGGGTGGCTGAGGATCGATC (ssDNA) [AMX(399)_E9],13.8
3,TCCCGATTGTCATAGGTGGTTTGTCTGGGTAGGGTGGCTGAGGATCGATC (ssDNA) [AMX(399)_E10],28.9
4,TCCTGTCGATCCCTACGGGTAGTGTTGGTTTGGGTGGCTGAGGATCGATC (ssDNA) [AMX(399)_B9],14.3
5,TCCCGCATTGAATAGGACTCAGGGATGGTGTGGGTGGCTGAGGATCGATC (ssDNA) [AMX(399)_D6],22
6,TCCCATCGAGTCGTGGTGTTTTGTTGGCCTGGGTGGCTGAGGATCGATC (ssDNA) [AMX(398)_F2],8.81
7,TCCCAGGATCGATTCTGGTATTGTTGGTGGGGGTGGCTGAGGATCGATC (ssDNA) [AMX(399)_D9],19.7
8,TCCCTAGATCGGGTCCTGGTAGTGTTTCTGGGTGGCTGAGGATCGATC (ssDNA) [AMX(399)_F5],49.3
9,TCCCGATTTCGATTCTGGTAGTGTTTTCTGGGTGGCTGAGGATCGATC (ssDNA) [AMX(399)_E3],13.3
10,TCCCATCGATTTGTCCTCAGAGGTTGGCGTGGGTGGCTGAGGATCGATC (ssDNA) [AMX(399)_B12],15.3
11,TCCCATCGAGCCGGGTATGTTTCGTTGGGCTGGGTGGCTGAGGATCGATC (ssDNA) [AMX(399)_E5],12.5
12,TCCTGAGGGATCAGGCTAGGTTGGGTAGGGTGGTGGCTGAGGATCGATC (ssDNA) [AMX(398)_C8 (ARC2027)],48.5
13,TCCCGATTGATTCTGGGAGGTTTGGTTCTGGGTGGCTGAGGATCGATC (ssDNA) [AMX(399)_D4],9.02
14,TCCCTCGATCTAAGGTGCTTTTAGTGGTTTGGGTGGCTGAGGATCGATC (ssDNA) [AMX(399)_D7],24.9
15,TCCCATTGATCCGGGGTGGTTTTCTGGTTTGGGTGGCTGAGGATCGATC (ssDNA) [AMX(399)_B10],23.6
16,TCCCATCGATCTGTGGTGGTTTTGTGGTTTGGGTGGCTGAGGATCGATC (ssDNA) [AMX(399)_D10],40.8

# Molecular target: T1, thrombin (alpha-thrombin)
# Assay: filter; DPBS Ca2+ Mg2+, 0.1 mg/ml BSA
# Conditions: not given
row,Binder,Kd [nM]
1,TCCCAATCGGTCCTGGTAATATATTGGTCGGGGTGGCTGAGGATCGATC (ssDNA) [AMX(399)_H3],1.93
2,TCCCGGGATCGAGTCCGATTAGGGATGGTGTGGGTGGCTGAGGATCGATC (ssDNA) [AMX(395)_B7],14.5
3,TCCCAAGATCGGTACATACAGTGGGTGGTGAGGGTGGCTGAGGATCGATC (ssDNA) [AMX(395)_D11],5.55
4,TCCCGAGTGATCCGGGGTGTTTTTTTGGGTTGGGTGGCTGAGGATCGATC (ssDNA) [AMX(398)_E3],0.89
5,TCCCGATCGCTGTCCTAGGATGGGTAGGGTGGTGGCTGAGGATCGATC (ssDNA) [AMX(399)_D2],1.33
6,TCCCGTTCGAGTCCTGGTGTTTTATTGGCCTGGGTGGCTGAGGATCGATC (ssDNA) [AMX(399)_D5],2.26
7,TCCGATTGACGTGGTGGGTTACTGGTTTGGGTGGCTGAGGATCGATC (ssDNA) [AMX(398)_A1],0.3
8,B1,29.4
9,TCCCGGGTGGTTATCTTCTCAGGGATGGTGTGGGTGGCTGAGGATCGATC (ssDNA) [AMX(395)_C1],7.48
10,TCCCTAGATCGGGTCCTGGTAGTGTTTCTGGGTGGCTGAGGATCGATC (ssDNA) [AMX(399)_F5],2.35
11,TCCTGAGGGATCAGGCTAGGTTGGGTAGGGTGGTGGCTGAGGATCGATC (ssDNA) [AMX(398)_C8 (ARC2027)],0.42
12,TCCCGAGCGATACTGCCTAGGTTGGGTAGGGTGGTGGCTGAGGATCGATC (ssDNA) [AMX(398)_D6 (ARC2026)],0.29
